Blank lines part the entries; values can stand above or below the binder they belong to.
Key:
[1] = biological target: GST-KIAA1634 PDZ domain 1 (Homo sapiens (Human)), Q5TCQ9; assay: G assay titration, PDZ 5 ug/ml
[2] = biological target: T1, GST-PTPL1 PDZ domain 4 (Homo sapiens (Human)), Q12923; assay: G assay titration, PDZ 5 ug/ml
T1 chain: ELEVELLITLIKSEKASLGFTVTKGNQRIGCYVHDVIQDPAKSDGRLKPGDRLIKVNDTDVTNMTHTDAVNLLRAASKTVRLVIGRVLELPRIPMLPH

[3] = biological target: T2, GST-PICK1 PDZ domain 1 (Bos taurus (Bovine)), Q2T9M1; assay: G assay titration, PDZ 5 ug/ml
T2 chain: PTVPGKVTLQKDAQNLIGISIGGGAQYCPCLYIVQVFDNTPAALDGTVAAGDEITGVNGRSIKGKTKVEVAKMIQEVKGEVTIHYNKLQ

[4] = biological target: T3, GST-KIAA0807(S) PDZ domain 1 (Homo sapiens (Human)), Q6P0Q8; assay: G assay titration, PDZ 5 ug/ml
T3 chain: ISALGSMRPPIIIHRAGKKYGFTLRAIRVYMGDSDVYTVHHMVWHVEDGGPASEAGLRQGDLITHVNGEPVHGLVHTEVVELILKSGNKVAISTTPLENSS

[5] = biological target: T4, GST-HEMBA 1003117 PDZ domain 1 (Homo sapiens (Human)), Q96JH8; assay: G assay titration, PDZ 5 ug/ml
T4 chain: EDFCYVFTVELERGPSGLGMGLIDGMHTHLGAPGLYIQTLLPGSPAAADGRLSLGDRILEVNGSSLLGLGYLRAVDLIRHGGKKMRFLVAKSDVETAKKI

[6] = biological target: GST-KIAA807 [GST: P08515]; assay: G assay titration, PDZ 5 ug/ml
[7] = biological target: GST-KIAA1634 PDZ domain 1 (Homo sapiens (Human)), Q5TCQ9; assay: G' assay; further: key of the grades not given here
[8] = biological target: T5, GST-ZO-1 PDZ domain 2 (Rattus norvegicus (Rat)), A0A0G2; assay: G' assay; further: key of the grades not given here
T5 chain: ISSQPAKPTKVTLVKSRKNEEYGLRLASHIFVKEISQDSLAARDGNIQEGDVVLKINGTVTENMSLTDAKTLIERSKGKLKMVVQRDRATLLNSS

[9] = biological target: T1, GST-PTPL1 PDZ domain 4 (Homo sapiens …); assay: G' assay; further: key of the grades not given here
[10] = biological target: T2, GST-PICK1 PDZ domain 1 (Bos taurus …); assay: G' assay; further: key of the grades not given here
[11] = biological target: T3, GST-KIAA0807(S) PDZ domain 1 (Homo …); assay: G' assay; further: key of the grades not given here
[12] = biological target: T4, GST-HEMBA 1003117 PDZ domain 1 (Homo …); assay: G' assay; further: key of the grades not given here
[13] = biological target: GST-KIAA807 [GST: P08515]; assay: G' assay; further: key of the grades not given here
[14] = biological target: T6, GST-FLJ 10324 PDZ domain 1 [GST: P08515]; assay: G' assay; further: key of the grades not given here
T6 chain: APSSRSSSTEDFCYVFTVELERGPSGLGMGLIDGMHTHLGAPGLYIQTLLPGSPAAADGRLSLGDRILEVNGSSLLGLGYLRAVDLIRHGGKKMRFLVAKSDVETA

[15] = biological target: T6, GST-FLJ 10324 PDZ domain 1 [GST: P08515]; assay: G assay titration, PDZ 1 ug/ml
[16] = biological target: T7, GST-ZO-2 PDZ domain 1 (Homo sapiens (Human)), Q9UDY2; assay: G assay with desipramine or nortryptilline against no drug
T7 chain: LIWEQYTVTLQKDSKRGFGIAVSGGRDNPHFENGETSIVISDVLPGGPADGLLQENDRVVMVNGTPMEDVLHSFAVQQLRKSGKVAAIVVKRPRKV

[17] = biological target: GST-PIST PDZ domain 1 (Mus musculus (Mouse)), Q8BH60; assay: G assay titration, PDZ 0.5 ug/ml
[18] = biological target: GST-KIAA1634 PDZ domain 1 (Homo sapiens (Human)), Q5TCQ9; assay: G assay titration, PDZ 0.3 ug/ml
[19] = biological target: T8, GST-INADL PDZ domain 8 (Homo sapiens (Human)), Q8NI35; assay: G' assay; further: key of the grades not given here
T8 chain: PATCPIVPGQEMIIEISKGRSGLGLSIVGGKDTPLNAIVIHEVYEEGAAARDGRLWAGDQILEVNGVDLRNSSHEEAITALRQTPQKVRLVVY

[20] = biological target: T9, GST-ZO-1 PDZ domain 1 (Rattus norvegicus (Rat)), A0A0G2; assay: G' assay; further: key of the grades not given here
T9 chain: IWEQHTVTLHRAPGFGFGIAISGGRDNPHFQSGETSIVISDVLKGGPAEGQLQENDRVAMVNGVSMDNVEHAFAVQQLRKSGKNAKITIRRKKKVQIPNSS

[21] = biological target: T10, GST-EZRIN Binding Protein 50 PDZ domain 1 (Homo sapiens (Human)), O14745; assay: G' assay; further: key of the grades not given here
T10 chain: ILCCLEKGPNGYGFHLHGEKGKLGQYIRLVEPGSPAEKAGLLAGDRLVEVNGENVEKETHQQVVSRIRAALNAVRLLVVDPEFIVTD

[22] = biological target: T11, GST-TIP1 PDZ domain 1 (Table 9 insert) (Homo sapiens (Human)), O14907; assay: G' assay; further: key of the grades not given here
T11 chain: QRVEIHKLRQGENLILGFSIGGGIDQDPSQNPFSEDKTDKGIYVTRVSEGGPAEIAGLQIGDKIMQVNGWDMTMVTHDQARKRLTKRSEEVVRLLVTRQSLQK

[23] = biological target: T12, GST-Atrophin-1 Interacting Protein PDZ domain 1 (Rattus norvegicus (Rat)), O88382; assay: G' assay; further: key of the grades not given here
[24] = biological target: T13, GST-MUPP1 PDZ domain 10 (Homo sapiens (Human)), O75970; assay: G' assay; further: key of the grades not given here
T13 chain: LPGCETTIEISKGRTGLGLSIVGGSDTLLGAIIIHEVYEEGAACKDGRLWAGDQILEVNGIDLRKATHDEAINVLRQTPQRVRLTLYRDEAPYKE

[25] = biological target: T14, GST-NeDLG PDZ domains 1, 2, Q92796; assay: G' assay
T14 chain: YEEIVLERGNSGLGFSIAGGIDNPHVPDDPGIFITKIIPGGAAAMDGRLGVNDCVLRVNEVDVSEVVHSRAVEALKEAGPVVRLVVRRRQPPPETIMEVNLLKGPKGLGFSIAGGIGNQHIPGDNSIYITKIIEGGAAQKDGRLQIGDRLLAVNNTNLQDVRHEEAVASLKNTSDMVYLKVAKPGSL

[26] = biological target: T15, GST-Outer Membrane PDZ domain 1 (Homo sapiens (Human)), P57105; assay: G' assay; further: key of the grades not given here
T15 chain: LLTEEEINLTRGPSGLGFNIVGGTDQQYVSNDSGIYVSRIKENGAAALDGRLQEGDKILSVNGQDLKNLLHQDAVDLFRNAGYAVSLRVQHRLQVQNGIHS

[27] = biological target: T16, GST-BAI-1 Associated Protein PDZ domain 2 (Mus musculus (Mouse)), Q6RHR9; assay: G' assay; further: key of the grades not given here
[28] = biological target: GST-PSD95 PDZ domains 1, 2, 3 (Homo sapiens), P78352; assay: G' assay; further: key of the grades not given here
[29] = biological target: GST-DLG1 PDZ domains 1, 2 (Homo sapiens), Q12959; assay: G' assay; further: key of the grades not given here
[30] = biological target: T7, GST-ZO-2 PDZ domain 1 (Homo sapiens …); assay: G' assay
[31] = biological target: T17, GST-NOS1 PDZ domain 1 (Homo sapiens (Human)), P29475; assay: G' assay; conditions: remark: other sources report otherwise; further: key of the grades not given here
T17 chain: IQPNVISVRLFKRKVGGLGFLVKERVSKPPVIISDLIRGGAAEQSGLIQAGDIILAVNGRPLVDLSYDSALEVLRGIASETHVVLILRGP

[32] = biological target: GST-PIST PDZ domain 1 (Mus musculus (Mouse)), Q8BH60; assay: G' assay; further: key of the grades not given here
[33] = biological target: T18, GST-EZRIN Binding Protein 50 PDZ domain 2 (Homo sapiens (Human)), O14745; assay: G' assay; further: key of the grades not given here
T18 chain: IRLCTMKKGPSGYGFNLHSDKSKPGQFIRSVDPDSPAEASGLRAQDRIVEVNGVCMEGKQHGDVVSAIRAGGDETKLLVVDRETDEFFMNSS

[34] = biological target: T19, GST-Shank 1 PDZ domain 1 (Homo sapiens (Human)), Q9UPX8; assay: G' assay; further: key of the grades not given here
T19 chain: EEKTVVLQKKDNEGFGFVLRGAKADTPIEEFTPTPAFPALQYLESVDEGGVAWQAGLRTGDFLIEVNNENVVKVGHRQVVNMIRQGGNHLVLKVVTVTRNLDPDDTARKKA

[35] = biological target: T20, GST-Shank 3 PDZ domain 1 (human (hypothetical, computer cloned)), Q9BYB0; assay: G' assay; further: key of the grades not given here
T20 chain: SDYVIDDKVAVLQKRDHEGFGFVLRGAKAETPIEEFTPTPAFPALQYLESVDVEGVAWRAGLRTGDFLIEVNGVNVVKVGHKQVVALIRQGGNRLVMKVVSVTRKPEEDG

[36] = biological target: T9, GST-ZO-1 PDZ domain 1 (Rattus …); assay: G assay titration, PDZ 1 ug/ml
[37] = biological target: T12, GST-Atrophin-1 Interacting Protein PDZ …; assay: G assay titration, PDZ 1 ug/ml
[38] = biological target: T13, GST-MUPP1 PDZ domain 10 (Homo sapiens …); assay: G assay titration, PDZ 1 ug/ml
[39] = biological target: T7, GST-ZO-2 PDZ domain 1 (Homo sapiens …); assay: G assay titration, PDZ 1 ug/ml
[40] = biological target: T19, GST-Shank 1 PDZ domain 1 (Homo sapiens …); assay: G assay titration, PDZ 1 ug/ml
[41] = biological target: T16, GST-BAI-1 Associated Protein PDZ domain …; assay: G assay titration, PDZ 0.1 ug/ml

Chain of GST-KIAA807 [GST: P08515] (P08515 whole entry, the tested form may be a part): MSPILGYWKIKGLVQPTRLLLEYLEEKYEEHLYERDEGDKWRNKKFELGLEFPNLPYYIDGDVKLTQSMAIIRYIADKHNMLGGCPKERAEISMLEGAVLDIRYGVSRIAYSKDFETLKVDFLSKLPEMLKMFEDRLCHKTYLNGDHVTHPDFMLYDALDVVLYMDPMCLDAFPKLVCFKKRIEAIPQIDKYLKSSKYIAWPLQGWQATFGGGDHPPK
Chain of GST-KIAA1634 PDZ domain 1 (Homo sapiens (Human)), Q5TCQ9 (Q5TCQ9 401-502): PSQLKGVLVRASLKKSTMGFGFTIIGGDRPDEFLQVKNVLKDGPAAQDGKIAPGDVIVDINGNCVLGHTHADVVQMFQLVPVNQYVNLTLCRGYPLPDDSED
T16 sequence (Q6RHR9 455-558): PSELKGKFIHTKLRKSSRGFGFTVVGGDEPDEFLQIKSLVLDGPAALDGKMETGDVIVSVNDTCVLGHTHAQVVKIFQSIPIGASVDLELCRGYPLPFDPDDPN
T12 sequence (O88382 408-511): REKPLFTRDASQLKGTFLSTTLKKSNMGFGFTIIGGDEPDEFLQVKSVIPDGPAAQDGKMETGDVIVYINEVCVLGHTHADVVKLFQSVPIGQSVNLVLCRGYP
Chain of GST-PSD95 PDZ domains 1, 2, 3 (Homo sapiens), P78352 (P78352 62-395): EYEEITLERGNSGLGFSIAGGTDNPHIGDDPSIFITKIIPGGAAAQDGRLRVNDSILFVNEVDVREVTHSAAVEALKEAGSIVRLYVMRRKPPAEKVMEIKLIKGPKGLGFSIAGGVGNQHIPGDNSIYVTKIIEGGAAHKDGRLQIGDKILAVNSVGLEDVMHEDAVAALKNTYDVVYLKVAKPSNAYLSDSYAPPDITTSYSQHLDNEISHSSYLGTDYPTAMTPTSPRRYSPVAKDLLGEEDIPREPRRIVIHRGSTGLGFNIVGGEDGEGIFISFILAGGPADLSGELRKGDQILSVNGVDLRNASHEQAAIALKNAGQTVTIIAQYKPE

Kd [1]: 0.9 µM
Kd [2]: 0.4 µM
Kd [3]: 0.9 µM
Kd [4]: 0.4 µM
Kd [5]: 0.3 µM
Kd [6]: 0.4 µM
Classification [7]: 3 A450 class
Classification [8]: 1 A450 class
Classification [9]: 3 A450 class
Classification [10]: 2 A450 class
Classification [11]: 4 A450 class
Classification [12]: 5 A450 class
Classification [13]: 4 A450 class
Classification [14]: 5 A450 class
Kd [15]: 0.3 µM
Binder: RELVDRGEVRQFTLRHWLKV (modifications not checked) [Dopamine transporter]

fold decrease of binding with drug [16]: 4.2 fold
Kd [4]: 2 µM
Kd [6]: 2 µM
Kd [17]: 2.5 µM
Kd [18]: 1 µM
Classification [19]: 5 A450 class
Classification [7]: 5 A450 class
Classification [20]: 2 A450 class
Classification [21]: 1 A450 class
Classification [22]: 1 A450 class
Classification [23]: 3 A450 class
Classification [24]: 4 A450 class
Classification [25]: 2 A450 class
Classification [26]: 1 A450 class
Classification [11]: 3 A450 class
Classification [27]: 5 A450 class
Classification [28]: 2 A450 class
Classification [29]: 1 A450 class
Classification [13]: 3 A450 class
Classification [30]: 3 A450 class
Classification [31]: 1 A450 class
Classification [32]: 4 A450 class
Classification [33]: 1 A450 class
Classification [34]: 5 A450 class
Classification [35]: 2 A450 class
Kd [36]: 5 µM
Kd [37]: 3 µM
Kd [38]: 2.5 µM
Kd [39]: 3 µM
Kd [40]: 5 µM
Kd [41]: 4 µM
Binder: TREDIYVNYPTFSRRPKTRV (modifications not checked) [DNAM-1]

Reference: patent publication US20050282743A1, “Molecular interactions in cells” (Arbor Vita Corporation, priority 2001, published 2005)
